From patent US20090180995A1, “NOVEL ANTICOAGULANT POLYPEPTIDES AND COMPLEX” (National University of Singapore, priority 2005, published 2009)

B1: hemextin B (protein)
chain: LKCKNKVVPFLKCKNKVVPFLCYKMTLKKVPKIPIKRGCTDACPKSSLLVNVMCCKTDKCN
B2: hemextin A (protein)
chain: LKCKNKLVPFLSKTCPEGKNLCYKMTMLKMPKIPIKRGCTDACPKSSLLVKVVCCNKDKCN
B3: hemextin AB complex: synergistic 1:1 tetrameric complex of hemextin A and hemextin B, reconstituted from equimolar proteins (protein)
chain 1: LKCKNKLVPFLSKTCPEGKNLCYKMTMLKMPKIPIKRGCTDACPKSSLLVKVVCCNKDKCN
chain 2: LKCKNKVVPFLKCKNKVVPFLCYKMTLKKVPKIPIKRGCTDACPKSSLLVNVMCCKTDKCN

Legend:
plasma [1] = assay: Thrombin time; assay type: biochemical; details: human plasma, thrombin reagent
Protocol: (§1) Anticoagulant activity—The anticoagulant activities of H. haemachatus venom and its fractions was determined by four coagulation tests using a BBL fibrometer: • 1. Recalcification time: The recalcification times were determined according to the method of Langdell et al. (25). 50 mM Tris-HCl buffer (pH 7.4) (100 μl), plasma (100 μl) and various concentrations of venom or its fraction (50 μl) were preincubated for 2 min at 37° C. Clotting was initiated by the addition of 50 μl of 50 mM CaCl2. • 2. Prothrombin time: The prothrombin times were measured according to the method of Quick (26). […] Clotting was initiated by the addition of thromboplastin with calcium reagent (150 μl) which can be purchased from Sigma (St. Louis, Mo., USA). • For studying the role of electrostatic interactions, the anticoagulant activity of a specific concentration of hemextin A (4.4 μM), hemextin B (4.4 μM) and hemextin AB complex (0.11 μM) was monitored in 50 mM Tris-HCl (pH 7.4) containing various concentrations of NaCl (35 mM to 150 mM). • For studying the role of hydrophobic interactions, the anticoagulant activity of a specific concentration of hemextin A (4.4 μM), hemextin B (4.4 μM) and hemextin AB complex (0.11 μM) was monitored in 50 mM Tris-HCl (pH 7.4) containing various concentrations of glycerol (125 mM to 250 mM). • 2. […] Thrombin time: Thrombin time was determined according to the method of Jim (28). […]

Factor XIIa = assay: Serine protease specificity, FXIIa; assay type: biochemical; details: FXIIa (0.4 nM)/S-2302
Protocol: (§2) Serine protease specificity—The selectivity profile of anticoagulant proteins and their complex was examined against 12 serine proteases—procoagulant serine proteases (FIXa, FXa, FXIa, FXIIa, plasma kallikrein and thrombin), anticoagulant serine protease (APC), fibrinolytic serine proteases (urokinase, t-PA and plasmin) and classical serine proteases (trypsin and chymotrypsin). Various concentrations of purified hemextin A/hemextin B and reconstituted hemextin AB complex were preincubated with each of the enzymes (Table 1) for a period of five minutes at a temperature of 37° C., followed by the addition of appropriate chromogenic substrate.
(§3) For studies with FXIa, kallikrein and urokinase, the appropriate substrates were determined prior to their screening against the inhibitors. For FXIa, the Vmax for the amidolytic activity corresponding to the chromogenic substrates S-2266, S-2302 and S-2366 was determined. S-2302 was the substrate with the highest Vmax and thus was used in the screening studies. Similar studies with kallikrein and urokinase were carried out with substrates S-2266, S-2302 and S-2288 for kallikrein and S-2444 and S-2484 for urokinase. In a total volume of 200 μl in the individual wells of the microtiter plate, final concentrations of FVIIa (300 nM)/S-2288, FVIIa-sTF (30 nM)/S-2288, FXa (0.75 nM)/S-2765, α-thrombin (0.66 nM)/S-2238, plasmin (2 nM)/S-2366, FIXa (3 μM)/spectrozyme®fIXa, FXIa (0.34 nM)/S-2366, FXIIa (0.4 nM)/S-2302, recombinant tissue plasminogen activator (80 nM)/S-2288, activated protein C (0.34 nM)/S-2366, urokinase/S-2444, plasma kallikrein (0.4 nM)/S-2302, trypsin (2.17 nM)/S-2222 and chymotrypsin (0.4 nM)/S-2586 were measured. The kinetic rate of substrate hydrolysis (mOD/min) was measured over 5 min.

plasma [2] = assay: Stypven time; assay type: biochemical; details: human plasma, RVV
Protocol: as §1

Factor IXa = Factor IXa (Homo sapiens, UniProt P00740); assay: Serine protease specificity, FIXa; assay type: biochemical; details: FIXa (3 μM)/Spectrozyme fIXa
Protocol: as §2, §3

FVIIa-sTF = target: T1, FVIIa-sTF (Homo sapiens, UniProt P08709); assay: FVIIa-sTF amidolytic activity; assay type: biochemical; details: FVIIa-sTF (30 nM)/S-2288
T1 construct: made in house; host or cells: Saccharomyces cerevisiae (sTF); human plasma (FVIIa)
Protocol: as §2
For studies with FXIa, kallikrein and urokinase, the appropriate substrates were determined prior to their screening against the inhibitors. For FXIa, the Vmax for the amidolytic activity corresponding to the chromogenic substrates S-2266, S-2302 and S-2366 was determined. S-2302 was the substrate with the highest Vmax and thus was used in the screening studies. Similar studies with kallikrein and urokinase were carried out with substrates S-2266, S-2302 and S-2288 for kallikrein and S-2444 and S-2484 for urokinase. […] The kinetic rate of substrate hydrolysis (mOD/min) was measured over 5 min.

[3] = Size exclusion chromatography of hemextin AB complex in different buffers; assay type: physicochemical
Protocol: Size exclusion chromatography (SEC) studies—All SEC experiments were carried out at room temperature on a pre-packed Superdex 75 gel filtration column (1.6×60 cm) using a ÄKTA Purifier system (Amersham Biosciences, Uppsala, Sweden). The column was eluted with 50 mM Tris-HCl buffer (pH 7.4) or the specified elution buffer, at a flow rate of 1 ml/min. The sample volume applied to the column was 4 ml. The column was calibrated using ovomucoid (28 kD) ribonuclease (15.6 KD), cytochrome C (12 KD), apoprotinin (7 KD) and pelovaterin (4 KD) (20) as molecular weight markers. The void volume was determined by running Blue Dextran. The column was equilibrated with at least two bed volumes of the elution buffer prior to each run. Electrostatic contributions in the hemextin AB complex formation were studied by monitoring its elution in 50 mM Tris-HCl buffer (pH 7.4) of different concentrations of NaCl (75 mM and 150 mM). Hydrophobic contributions for the complex formation were determined by recording its elution in 50 mM Tris-HCl buffer (pH 7.4). In both studies, the column was first equilibrated with the desired buffer prior to the application of the reconstituted hemextin AB complex in the respective buffer to the column. Elution of protein was monitored by absorbance at 280 nm.

[4] = test system: hemextin A-hemextin B interaction; assay: ITC, hemextin A-hemextin B interaction; assay type: binding, Hemachatus haemachatus

Sequence of Factor XIIa (P00748 373-615 limits assumed): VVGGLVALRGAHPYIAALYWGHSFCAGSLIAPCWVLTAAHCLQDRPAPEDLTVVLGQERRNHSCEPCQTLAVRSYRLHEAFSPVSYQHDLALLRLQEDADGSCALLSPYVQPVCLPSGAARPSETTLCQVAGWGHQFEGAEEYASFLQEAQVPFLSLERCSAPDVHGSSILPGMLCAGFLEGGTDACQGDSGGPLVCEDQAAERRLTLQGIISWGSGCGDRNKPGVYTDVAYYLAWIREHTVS
T1 sequence (P08709 61-212 limits assumed): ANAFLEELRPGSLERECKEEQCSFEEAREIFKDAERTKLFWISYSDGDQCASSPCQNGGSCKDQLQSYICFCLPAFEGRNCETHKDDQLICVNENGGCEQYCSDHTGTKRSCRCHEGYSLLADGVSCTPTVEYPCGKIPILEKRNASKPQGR
T1 sequence (P08709 213-466 limits assumed): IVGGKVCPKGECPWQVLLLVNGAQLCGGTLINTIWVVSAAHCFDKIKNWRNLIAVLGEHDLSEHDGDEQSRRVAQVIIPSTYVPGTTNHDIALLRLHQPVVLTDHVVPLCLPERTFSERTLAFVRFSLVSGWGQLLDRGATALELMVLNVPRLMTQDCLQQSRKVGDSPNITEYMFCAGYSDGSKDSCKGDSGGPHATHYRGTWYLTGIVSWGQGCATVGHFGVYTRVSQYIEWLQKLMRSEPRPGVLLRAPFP
T1 sequence (P13726 33-251 partner limits assumed): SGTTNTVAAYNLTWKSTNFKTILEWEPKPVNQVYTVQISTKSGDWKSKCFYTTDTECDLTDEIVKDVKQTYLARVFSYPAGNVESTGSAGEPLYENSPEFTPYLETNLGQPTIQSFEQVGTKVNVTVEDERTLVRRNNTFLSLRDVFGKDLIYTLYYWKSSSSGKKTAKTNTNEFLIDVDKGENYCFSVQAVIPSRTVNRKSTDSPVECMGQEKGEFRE

| Molecule | clotting time, thrombin time (plasma [1]) | Observed Effect, Factor XIIa amidolytic activity (Factor XIIa) | clotting time, Stypven time (plasma [2]) | Observed Effect, Factor IXa amidolytic activity (Factor IXa) | inhibition of FVIIa-sTF amidolytic activity (FVIIa-sTF) | SEC elution of the complex, 75 mM NaCl ([3]; 50 mM Tris-HCl (pH 7.4), 75 mM NaCl) | SEC elution of the complex, 150 mM NaCl ([3]; 50 mM Tris-HCl (pH 7.4), NaCl 150 mM) | SEC elution of the complex, high glycerol concentration ([3]; Superdex 75, buffers containing glycerol) | Ka ([4]; 10 ° C., 50 mM Tris (pH 7.4)) [M⁻¹] | Ka ([4]; 25 ° C., 50 mM Tris (pH 7.4)) [M⁻¹] | Ka ([4]; 37 ° C., 50 mM Tris (pH 7.4)) [M⁻¹] | Ka ([4]; 37 ° C., 50 mM Tris (pH 7.4) + 35 mM NaCl) [M⁻¹] | Ka ([4]; 37 ° C., 50 mM Tris (pH 7.4) + 75 mM NaCl) [M⁻¹] | Ka ([4]; 37 ° C., 50 mM Tris (pH 7.4) + 100 mM NaCl) [M⁻¹] | Ka ([4]; 37 ° C., 50 mM Tris (pH 7.4) + 125 mM glycerol) [M⁻¹] | Ka ([4]; 37 ° C., 50 mM Tris (pH 7.4) + 150 mM NaCl) [M⁻¹] | Ka ([4]; 37 ° C., 50 mM Tris (pH 7.4) + 175 mM glycerol) [M⁻¹] | Ka ([4]; 37 ° C., 50 mM Tris (pH 7.4) + 250 mM glycerol) [M⁻¹] | Ka ([4]; 45 ° C., 50 mM Tris (pH 7.4)) [M⁻¹] | binding constant (Ka), hemextin AB complex formation ([4]; ITC) [M⁻¹] |
| --- | --- | --- | --- | --- | --- | --- | --- | --- | --- | --- | --- | --- | --- | --- | --- | --- | --- | --- | --- | --- |
| B1 | did not prolong clotting times | no inhibitory activity | did not prolong clotting times | no inhibitory activity |  |  |  |  |  |  |  |  |  |  |  |  |  |  |  |  |
| B2 | did not prolong | no inhibitory activity | did not prolong | no inhibitory activity | potent inhibitory activity |  |  |  |  |  |  |  |  |  |  |  |  |  |  |  |
| B3 |  | no inhibitory activity |  | no inhibitory activity | potent inhibitory activity | the tetramer starts breaking down to dimer | eluted mostly as a dimer and monomer | the tetramer breaks down to dimer and monomers | 640000 | 2.07e+06 | 2.23e+06 | 630000 | 330000 | 20000 | 320000 | 2000 | 200000 | 50000 | 1.97e+06 | 2.23e+06 |
